T1: human recombinant LAP β1 (R&D), not treated with protease
T1 chain: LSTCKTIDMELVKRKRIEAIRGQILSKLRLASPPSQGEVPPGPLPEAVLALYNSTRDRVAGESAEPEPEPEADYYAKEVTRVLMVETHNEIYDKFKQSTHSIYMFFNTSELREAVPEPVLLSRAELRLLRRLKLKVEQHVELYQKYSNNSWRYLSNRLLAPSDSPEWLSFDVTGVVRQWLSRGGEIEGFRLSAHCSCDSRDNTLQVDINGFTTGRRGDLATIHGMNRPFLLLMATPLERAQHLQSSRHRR

B1: human matrix metalloprotease 9 (MMP9) (Alexis), APMA-activated (protein)
chain: MRTPRCGVPDLGRFQTFEGDLKWHHHNITYWIQNYSEDLPRAVIDDAFARAFALWSAVTPLTFTRVYSRDADIVIQFGVAEHGDGYPFDGKDGLLAHAFPPGPGIQGDAHFDDDELWSLGKGVVVPTRFGNADGAACHFPFIFEGRSYSACTTDGRSDGLPWCSTTANYDTDDRFGFCPSERLYTQDGNADGKPCQFPFIFQGQSYSACTTDGRSDGYRWCATTANYDRDKLFGFCPTRADSTVMGGNSAGELCVFPFTFLGKEYSTCTSEGRGDGRLWCATTSNFDSDKKWGFCPDQGYSLFLVAAHEFGHALGLDHSSVPEALMYPMYRFTEGPPLHKDDVNGIRHLYGPRPEPEPRPPTTTTPQPTAPPTVCPTGPPTVHPSERPTAGPTGPPSAGPTGPPTAGPSTATTVPLSPVDDACNVNIFDAIAEIGNQLYLFKDGKYWRFSEGRGSRPQGPFLIADKWPALPRKLDSVFEERLSKKLFFFSGRQVWVYTGASVLGPRRLDKLGLGADVAQVTGALRSGRGKMLLFSGRRLWRFDVKAQMVDPRSASEVDRMFPGVPLDTHDVFQYREKAYFCQDRFYWRVSSRSELNQVDQVGYVTYDILQCPED
B2: human matrix metalloprotease 2 (MMP2) (Alexis), APMA-activated (protein)
chain: YNFFPRKPKWDKNQITYRIIGYTPDLDPETVDDAFARAFQVWSDVTPLRFSRIHDGEADIMINFGRWEHGDGYPFDGKDGLLAHAFAPGTGVGGDSHFDDDELWTLGEGQVVRVKYGNADGEYCKFPFLFNGKEYNSCTDTGRSDGFLWCSTTYNFEKDGKYGFCPHEALFTMGGNAEGQPCKFPFRFQGTSYDSCTTEGRTDGYRWCGTTEDYDRDKKYGFCPETAMSTVGGNSEGAPCVFPFTFLGNKYESCTSAGRSDGKMWCATTANYDDDRKWGFCPDQGYSLFLVAAHEFGHAMGLEHSQDPGALMAPIYTYTKNFRLSQDDIKGIQELYGASPDIDLGTGPTPTLGPVTPEICKQDIVFDGIAQIRGEIFFFKDRFIWRTVTPRDKPMGPLLVATFWPELPEKIDAVYEAPQEEKAVFFAGNEYWIYSASTLERGYPKPLTSLGLPPDVQRVDAAFNWSKNKKTYIFAGDKFWRYNEVKKKMDPGFPKLIADAWNAIPDNLDAVVDLQGGGHSYFFKGAYYLKLENQSLKSVKFGSIKSDWLGC
B3: human blood-derived plasmin (PLN) (Sigma) (protein)
chain: KVYLSECKTGNGKNYRGTMSKTKNGITCQKWSSTSPHRPRFSPATHPSEGLEENYCRNPDNDPQGPWCYTTDPEKRYDYCDILECEEECMHCSGENYDGKISKTMSGLECQAWDSQSPHAHGYIPSKFPNKNLKKNYCRNPDRELRPWCFTTDPNKRWELCDIPRCTTPPPSSGPTYQCLKGTGENYRGNVAVTVSGHTCQHWSAQTPHTHNRTPENFPCKNLDENYCRNPDGKRAPWCHTTNSQVRWEYCKIPSCDSSPVSTEQLAPTAPPELTPVVQDCYHGDGQSYRGTSSTTTTGKKCQSWSSMTPHRHQKTPENYPNAGLTMNYCRNPDADKGPWCFTTDPSVRWEYCNLKKCSGTEASVVAPPPVVLLPDVETPSEEDCMFGNGKGYRGKRATTVTGTPCQDWAAQEPHRHSIFTPETNPRAGLEKNYCRNPDGDVGGPWCYTTNPRKLYDYCDVPQCAAPSFDCGKPQVEPKKCPGRVVGGCVAHPHSWPWQVSLRTRFGMHFCGGTLISPEWVLTAAHCLEKSPRPSSYKVILGAHQEVNLEPHVQEIEVSRLFLEPTRKDIALLKLSSPAVITDKVIPACLPSPNYVVADRTECFITGWGETQGTFGAGLLKEAQLPVIENKVCNRYEFLNGRVQSTELCAGHLAGGTDSCQGDSGGPLVCFEKDKYILQGVTSWGLGCARPNKPGVYVRVSRFVTWIEGVMRNN

Target: T1, human recombinant LAP β1 (R&D), not …

Protein | degradation of LAP β1 (SDS-PAGE, silver staining) | limited degradation on longer incubation; cleavage sites by N-terminal sequencing | limited degradation; cleavage site by N-terminal sequencing of the fragments
B1 | degradation of LAP could not be confirmed | – | –
B2 | degradation of LAP could not be confirmed | – | –
B3 | – | plasmin successively cleaved between 85 Arg and 86 Asp, and between 106 Lys and 107 Glu | plasmin specifically cleaves between 56 Lys and 57 Leu of latent TGF-β

Source: patent US20080038748
